Blank lines part the entries; values can stand above or below the substance they belong to.
Biological target: mouse Mc4r (melanocortin 4 receptor), untagged expression construct (mouse) (UniProt P56450)
Experiment: cell-based or functional assay

UniProt P56450, sequence (P56450 whole entry): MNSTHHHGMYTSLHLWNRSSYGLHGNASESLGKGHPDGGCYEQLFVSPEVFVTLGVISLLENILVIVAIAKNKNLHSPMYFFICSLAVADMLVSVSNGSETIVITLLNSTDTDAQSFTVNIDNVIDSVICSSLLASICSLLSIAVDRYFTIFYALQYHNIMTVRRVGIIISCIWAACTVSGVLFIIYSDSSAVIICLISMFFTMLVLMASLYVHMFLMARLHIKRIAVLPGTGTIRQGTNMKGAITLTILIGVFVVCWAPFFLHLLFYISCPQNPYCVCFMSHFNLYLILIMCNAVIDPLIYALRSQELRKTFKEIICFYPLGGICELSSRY

- αMSH-induced increase above basal PKA activity (CRELuc, CHO cells co-transfected with Mc4r and Mrap2, 0-10 nM αMSH): 5 fold
Substance: mouse Mrap2 (melanocortin 2 receptor accessory protein 2), untagged expression construct (from UniProt D3Z1Q2 1-207)

- αMSH-induced increase above basal PKA activity (CRELuc, CHO cells co-transfected with Mc4r and Mrap2delE3): < 2 fold
Substance: Mrap2delE3 (mouse Mrap2 with exon 3 deleted) (from UniProt D3Z1Q2 1-55)

- αMSH-induced increase above basal PKA activity (CRELuc, CHO cells transfected with Mc4r alone): < 2 fold
Substance: α-melanocyte stimulating hormone (from UniProt P01189 138-150) (peptide)

Source: US20160143256A1
